Results taken from patent US20250114467A1 (SHANGHAI FUDAN ZHANGJIANG BIO PHARMACEUTICAL, published 2025).

T1: recombinant DLL3 protein (purchased from ACRO, DL3-H5255) (human, UniProt Q9NYJ7 27-479)
T1 construct: Bought; also called human DLL3 protein; hDLL3
T1 sequence (looked up): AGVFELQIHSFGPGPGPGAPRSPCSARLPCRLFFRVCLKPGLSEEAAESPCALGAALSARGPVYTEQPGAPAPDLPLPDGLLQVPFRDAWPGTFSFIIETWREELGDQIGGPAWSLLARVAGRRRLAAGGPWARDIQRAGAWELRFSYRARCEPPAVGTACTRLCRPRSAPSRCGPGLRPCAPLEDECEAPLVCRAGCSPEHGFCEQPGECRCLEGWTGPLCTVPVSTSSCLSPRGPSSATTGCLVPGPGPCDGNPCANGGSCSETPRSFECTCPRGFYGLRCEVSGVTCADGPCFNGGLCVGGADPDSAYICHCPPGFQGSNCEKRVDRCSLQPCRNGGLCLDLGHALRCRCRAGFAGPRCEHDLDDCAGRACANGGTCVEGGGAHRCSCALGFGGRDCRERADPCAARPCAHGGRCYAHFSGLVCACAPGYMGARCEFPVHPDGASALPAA

T2: human DLL3 (hDLL3) on cells (human, UniProt Q9NYJ7 27-618)
T2 construct: whole, on cells; V5-tagged); also called DLL3 on SHP-77 cells (endogenous); hDLL3 on HEK293 cells
T2 sequence (looked up): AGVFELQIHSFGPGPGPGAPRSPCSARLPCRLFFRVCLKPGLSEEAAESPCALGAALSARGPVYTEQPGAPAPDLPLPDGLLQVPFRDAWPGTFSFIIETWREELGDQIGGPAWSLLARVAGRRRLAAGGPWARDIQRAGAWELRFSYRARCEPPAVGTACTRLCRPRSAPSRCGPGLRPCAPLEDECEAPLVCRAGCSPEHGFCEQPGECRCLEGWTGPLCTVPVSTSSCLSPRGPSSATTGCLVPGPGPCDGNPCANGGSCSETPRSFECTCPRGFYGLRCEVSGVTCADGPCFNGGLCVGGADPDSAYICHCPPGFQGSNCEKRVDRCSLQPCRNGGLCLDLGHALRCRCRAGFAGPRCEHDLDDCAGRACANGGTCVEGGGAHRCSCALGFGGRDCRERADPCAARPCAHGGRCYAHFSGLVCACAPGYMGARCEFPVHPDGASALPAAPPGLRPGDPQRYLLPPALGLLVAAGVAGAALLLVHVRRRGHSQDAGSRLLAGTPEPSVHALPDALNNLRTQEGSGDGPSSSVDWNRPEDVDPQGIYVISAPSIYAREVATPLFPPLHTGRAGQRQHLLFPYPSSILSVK


Molecular target: T1, recombinant DLL3 protein (purchased …)
Experiment: ELISA, plate-coated human DLL3 protein 1 µg/ml
Text: Six 6-week-old SPF grade female Balb/C mice (purchased from Shanghai Jihui Laboratory Animal Care Co., Ltd.) were selected and randomly divided into two groups, A and B. They were immunized with recombinant DLL3 protein (purchased from ACRO, DL3-H5255) at two-week intervals. Freund's complete adjuvant was used for the first immunization and Freund's incomplete adjuvant was used for subsequent immunizations. On days 35 and 49, blood samples were collected from the mice via orbital bleeding, and the immune serum titers of the mice were detected using conventional methods of ELISA and Flow Cytometry (FACS). ELISA detection method: DLL3 protein was diluted with PBS to a concentration of 1 μg/ml. 100 μl/well was added to a 96-well ELISA plate and incubated overnight at 4° C. The next day, the supernatant was discarded, and each well was blocked with 200 μl of 2% milk in PBS for 2 hours. After discarding the blocking solution, the wells were washed 3 times with 200 μl of PBST (0.1% Tween20). The serum to be detected was pre-diluted 100 times as the starting concentration, followed by a 3-fold gradient dilution across 11 concentrations, with 100 μl added to each well of the ELISA plate. After incubating at room temperature for 1 hour, the supernatant was discarded and the wells were washed 5 times with 200 μl of PBST (0.1% Tween20). Then, 100 μl of HRP-labeled goat anti-mouse secondary antibody (Jackson, 1:10000) was added and incubated at room temperature for 1 hour. After discarding the supernatant, the wells were washed 7 times with 200 μl of PBST (0.1% Tween20). 100 μl of TMB chromogen solution was added to each well for 10 minutes. The reaction was terminated with 2M HCl, and absorbance value at 450 nm was read with a Microplate Reader (purchased from Biotek, Elx808).
For the hybridoma clones with good binding and internalization activities identified in Example 5, the heavy chain variable region sequences were synthesized and cloned into the pFUSEss-CHIg-hG1 vector (purchased from InvivoGen, catalog number pfusess-hchgl) comprising the amino acid sequence of the human antibody IgG1 heavy chain constant region by homologous recombination.

Row | EC50 | Binder
1 | 0.0108 µg/mL | FDA027 (antibody, human IgG1, kappa, V domains shown, also called anti-DLL3 antibody FDA027) VH: QVQLVQSGAEVKKPGASVKVSCKASGYTFTNYGMNWVRQAPGQGLEWMGWINTYTGEPTYADDFKGRVTMTTDTSTSTAYMELRSLRSDDTAVYYCARIGDSSPSDYWGQGTLVTVSS VL: EIVMTQSPATLSVSPGERATLSCKASQSVSNDVVWYQQKPGQAPRLLIYYASNRYTGIPARFSGSGSGTEFTLTISSLQSEDFAVYYCQQDYTSPWTFGQGTKLEIKR

Molecular target: T2, human DLL3 (hDLL3) on cells
Experiment: flow cytometry on SHP-77 cells, 1 µg/ml antibody, kept on ice (0 H of the internalization assay)
Protocol: The SHP-77 cells were used to detect the internalization activity of the hybridoma antibodies obtained in Example 3-3 by using the FACS method described in Example 3-1. The detecting method is briefly described as follows: Six aliquots of 5×10⁵ SHP-77 cells each were prepared in a 96-well V-bottom plate and centrifuged at 1500 r/min for 1 minute, after which the supernatant was discarded. 1 μg/ml of the saturated antibody to be detected was added to each well (200 μL per well) and incubated on ice for 30 minutes. Then, 150 μL of PBS was added to each well, followed by centrifugation at 1500 r/min for 1 minute, and the supernatant was discarded. This step was repeated four times. The cells were resuspended in 200 μl of PBS, and one aliquot was incubated at 37° C. for various durations: 5 hours, 3 hours, 1 hour, 0.5 hours, and 15 minutes. The remaining aliquot was kept on ice. After incubation, all samples were centrifuged at 4° C., 1500 r/min for 1 minute, and the supernatant was discarded. APC-labeled goat anti-mouse IgG (Jackson, catalog number 109-605-098, diluted 1:800 in PBS) was added to each well (50 μL per well) and incubated on ice for 30 minutes. The cells were then washed four times by resuspending in 150 μL of PBS, followed by centrifugation at 1500 r/min for 1 minute and discarding the supernatant. Finally, the cells were resuspended in 100 μL of PBS and analyzed using a CytoFLEX flow cytometer (purchased from Beckman).

Row | fluorescence value at 0 H | Binder
2 | 22400 | 10B1 (antibody, V domains shown, Murine hybridoma monoclonal antibody; also called hybridoma antibody clone 10B1) VH: DVKLVESGGGLVKPGGSLKLSCAASGFTFSNYTISWVRQTPEKRLEWVATFSSGGSYTYYSDSVKGRFTISRDNAKNTLYLQMSSLKSEDTAMYYCSRDRRSDGYYHLYAMDYWGQGTSVTVSS VL: DIQMTQTTSSLSASLGDRVTISCRASQDISHYLNWYQQKPDGTVKLLIYYTSRLHSGVPSRFSGSGSGTAYSLTISNLEQEDIATYFCQQGYTLPLTFGAGTKLELK
3 | 20300 | 23G2 (antibody, V domains shown, Murine hybridoma monoclonal antibody; also called hybridoma antibody clone 23G2) VH: QVQLQQSGPELVRPGVSVKISCKGSGYTFTDYAIHWVKQSRAKSPEWIGIVSTDSGKTSFNQKFKGKATMTVDKSSTTAYMELVRLTSEDSAIYYCARNPYYDYDGYAMDYWGQGTSVTVSS VL: DIQMTQSSSYLSVSLGGRVTIICKASDHINNWLAWYQQKPGNAPRLIISGATSLETGVPSRFSGSGSGKDYTLSITSLQTEDVATYYCQQYWSIPYTFGGGTKLEIK
4 | 15400 | 4H7 (antibody, V domains shown, Murine hybridoma monoclonal antibody; also called hybridoma antibody clone 4H7) VH: EVQLQQSGAELVRPGALVKLSCKASGFNFKDYYIHWVKQRPELGLEWIGWIDPENGNAIYDPKFQDKASITADTSSNTAYLHLSSLTSEGTAVYYCASEDAYYPFAYWGQGTLVTVSS VL: DIVMSQSPSSLAVSVGEKVTMRCKSSQSLLYSSNQKNYLAWYQQKPGQSPKLLIYWASTRESGVPDRFTGSGSGTDFTLTISSVKAEDLAVYFCQQYYSYRTFGGGTKLEIK
5 | 29600 | 19C7 (antibody, V domains shown, Murine hybridoma monoclonal antibody; also called hybridoma antibody clone 19C7) VH: EVQLQQSGPELVRPGASVRMSCKASGYTFTYYVMHWVKQKPGLGLEWIGYINPYNDGTEYNEKFKGKATLTSDKSSSTAFMELSSLTSEDSAVYYCARWLLREYAMDYWGQGTSVTVSS VL: DIQMTQSPASLSASVGETVTITCRASDNIHNYLAWYQQKQGKSPQLLVYNAKTLADGVPSRFSGSGSGTQYSLKINSLQPEDFGSYYCQHFWSTPWTFGGGTKLEIK
6 | 15300 | 26D9 (antibody, V domains shown, Murine hybridoma monoclonal antibody; also called hybridoma antibody clone 26D9) VH: EVQLQQSGPELVKPGASVKMSCKASGYTFTTYVMHWVKQKPGQGLEWIGYINPYNDDTNYNEKFKGKATLTSDKSSSTAYMELSSLTSEDSAVYYCARWGLTGTGDYYAMDYWGQGTSVTVSS VL: DIQMTQSPASLSASVGETVTITCRASGNVHNYLAWYQQKQGRSPQVLVYNAKTLADGVPSRFSGSGSGTQYSLKINSLLPEDFGSYYCQHFWTTPWTFGGGTTLEIK
7 | 20300 | 6A2 (antibody, V domains shown, Murine hybridoma monoclonal antibody; also called hybridoma antibody clone 6A2) VH: EVQLQQSGPELVKPGASVKISCKASGYTFTDYNMNWVKQSQGKSLEWIGYIYPYNGGTGYNQKFKTKATLTVDNSSSTAYMEFRSLTSEDSAVYYCARSDPYYTMDYWGQGTSVTVSS VL: IIVMTQTPKFLLVSAGDRVTISCKASQSVNNDVAWYQQKPGQSPKLLIYFTSNRFTGVPDRFTGSGYGTDFTFTISSVQAEDLAVYFCQQDHNSPYTFGGGTKLEIK
8 | 40200 | 13C2 (antibody, V domains shown, Murine hybridoma monoclonal antibody; also called hybridoma antibody clone 13C2) VH: EVKLVESGGGLVKPGGSLKLSCAASGFAFSSYDMSWVRQTPEKRLEWVATISSGGSYTYYPDSVKGRFTISRDNGRNTLYLQMSSLRSEDTALYYCASPLLGLRFAYWGQGTLVTVSA VL: QAVVTQESALTTSPGETVTLTCRSSTGAVTTINYANWVQEKPDHLFTGLIGGTNNRAPGVPARFSGSLIGDKAALTITGAQTEDEAIYFCALYYSNHWVFGGGTKLTVL
9 | 32100 | 32E8 (antibody, V domains shown, Murine hybridoma monoclonal antibody; also called hybridoma antibody clone 32E8) VH: QVTLKESGPGILQPSQTLSLTCSFSGFSLSTSGMGVGWIRQPSGKGLEWLALIWWDDVKRYHPALKSRLTISKDTSSSQVFLKIASVDTADTATYYCARIAEVTGQVGLHYAMDYWGQGTSVTVSS VL: QTVLTQSPAIMSASLGERVTMTCTASSSVNSSSLHWYQQKPGSSPKLWIYTTSNLASGVPARFSGSGSGTSYSLTISSMEAEDAATYYCHQFHRSPFTFGSGTKLEIK
10 | 20300 | 15G2 (antibody, V domains shown, Murine hybridoma monoclonal antibody; also called hybridoma antibody clone 15G2) VH: EVQLQQSGPELEKPGASVRISCKASGYSFTDYNMHWVKQSNGKSLEWIGNIDPYYGGTNYNQKFEGKATLTVDKSSSTAYMQLKSLTSEDSAVYYCARGGNNYGDYWGQGTTLTVSS VL: DIQMTQSPASLAASVGETVTITCRASENIYYSLAWYQQKQGKSPQLLIFNANSLEDGVPSRFSGSGSGTQYSMKINSMQPEDTATYFCKQAYDVPWTFGGGTKLEIK
11 | 39300 | 1A5 (antibody, V domains shown, also called hybridoma antibody clone 1A5) VH: EVQLQQSGPELVKPGASVKISCKTSGYTFTESAMHWVKQSHGKSLEWIGGINPNNGGISYSQKFKGKATLTVDKSSSTAYMELRSLTSEDSAVYYCGSSYYRDYFDYWGQGTTLTVSS VL: NIVMTQSPESMSMSVGERVTLSCKASENVGTYVSWYQQKPDQSPKLLIYGASNRYTGVPDRFTGSGSATHFTLTISSVQAEDLADYHCGQSYSYPLTFGAGTKLELK
12 | 27600 | 33F11 (antibody, V domains shown, Murine hybridoma monoclonal antibody; also called hybridoma antibody clone 33F11) VH: EVQLQQSGPELVKPGASVKISCKTSGYTFTENTMHWVKQSHGESLEWIGGINPRNGVTSYNQKFKGKATLTVDKSSSTAYMELRSLTSEDSAVYYCTNTYYRDYFDYWGQGTTLTVSS VL: NIVMTQSPKSMSMSVGERVTLSCKASENVGTYVSWYQQKPDQSPKLLIYGASNRYTGVPDRFTGSGSPTDFTLTISRMQAEDLAHYYCGQTYTYPLTFGAGTKLELK
13 | 36000 | 36H10 (antibody, V domains shown, Murine hybridoma monoclonal antibody; also called hybridoma antibody clone 36H10) VH: EVQFQQSGPELVKPGASVKISCKASGYTFTDYNIHWVRQSQGKSLEWIGLIYPFNGGIVYNQKFKSKATLTVDNSSTSAYMELRSLSSEDSAVYFCARLNWEGYWGQGSTLIVSS VL: DIKMTQSPSSIYAFLGERVTITCKASQDINSYLSWFQQKPGKSPKTLIYRANRLVGGVPSRFSGSGSGQDYSLTISSLEYEDVGDYYCLQYAEFPYTFGGGTKLEIK
